Results on one substance are retold here after patent US20180086816A1.

The target in the test is prolactin-receptor on NB2-11 cells (rat lymphoma cells) (rat (NB2-11 rat lymphoma cells)) (UniProt P05710). The experiment in a line: cell-based or functional assay.
Chain of UniProt P05710 (P05710 20-610): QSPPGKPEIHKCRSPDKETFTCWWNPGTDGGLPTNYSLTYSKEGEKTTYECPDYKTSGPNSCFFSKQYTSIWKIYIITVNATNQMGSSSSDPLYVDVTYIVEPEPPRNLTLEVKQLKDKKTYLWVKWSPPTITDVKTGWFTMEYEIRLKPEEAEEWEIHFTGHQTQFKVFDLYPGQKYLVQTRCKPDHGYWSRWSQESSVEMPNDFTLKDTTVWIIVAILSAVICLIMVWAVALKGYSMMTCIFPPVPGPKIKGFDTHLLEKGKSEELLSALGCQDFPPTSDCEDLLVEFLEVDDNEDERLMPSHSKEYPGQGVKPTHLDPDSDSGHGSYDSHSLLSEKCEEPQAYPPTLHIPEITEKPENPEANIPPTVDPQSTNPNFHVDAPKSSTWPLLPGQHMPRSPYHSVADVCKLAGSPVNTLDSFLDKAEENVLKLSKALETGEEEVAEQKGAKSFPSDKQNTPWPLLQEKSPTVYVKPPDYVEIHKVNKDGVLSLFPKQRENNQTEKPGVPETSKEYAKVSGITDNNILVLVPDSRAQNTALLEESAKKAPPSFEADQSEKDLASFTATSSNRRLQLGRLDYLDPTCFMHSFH

For “CTP modified hGH (hGH with one CTP at the N terminus and two CTP at the C terminus, expressed in HeLa cells) (from UniProt P0DN86 138-165; P01241 27-217; P0DN86 138-165; P0DN86 138-165)”, the NB2-11 cell proliferation, WST formazan absorbance (OD), dose response 0.039 was determined as 593; the NB2-11 cell proliferation, WST formazan absorbance (OD), dose response 0.059 is 684; the NB2-11 cell proliferation, WST formazan absorbance (OD), dose response 0.088 was found to be 858; the NB2-11 cell proliferation, WST formazan absorbance (OD), dose response 0.132 was found to be 1050. Also, the NB2-11 cell proliferation, WST formazan absorbance (OD), dose response 0.198 turned out to be 1290; the NB2-11 cell proliferation, WST formazan absorbance (OD), dose response 0.296 was 1570; the NB2-11 cell proliferation, WST formazan absorbance (OD), dose response 0.444 was determined as 1800; the NB2-11 cell proliferation, WST formazan absorbance (OD), dose response 0.667 is 1970. The substance also showed an NB2-11 cell proliferation, WST formazan absorbance (OD), dose response 1 of 2110.
